From patent US20020028202A1 (Biogen, published 2002)
Where a chain is given by its changes, count along the chain named.

Assays:
Experiment in all cases: staining of transfected COS-7 cells, FACS
[1] = biological target: T1, human gc chain mutant, LSE replaced by Ala (Domain 2 Loop AB), myc-tagged, on COS-7 cells (human, UniProt P31785 23-369)
T1 construct: whole, on cells; not shown: 9 amino acid myc tag at the 5' end of the construct
T1 sequence (looked up): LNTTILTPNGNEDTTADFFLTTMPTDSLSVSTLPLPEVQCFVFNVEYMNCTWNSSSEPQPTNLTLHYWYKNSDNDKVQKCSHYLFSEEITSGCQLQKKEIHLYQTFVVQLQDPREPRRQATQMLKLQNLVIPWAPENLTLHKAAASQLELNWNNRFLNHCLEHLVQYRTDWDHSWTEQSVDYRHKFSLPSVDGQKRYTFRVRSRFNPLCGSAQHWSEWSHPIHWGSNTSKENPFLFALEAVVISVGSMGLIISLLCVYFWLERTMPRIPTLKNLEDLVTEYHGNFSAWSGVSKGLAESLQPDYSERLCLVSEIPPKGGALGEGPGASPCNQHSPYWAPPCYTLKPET

[2] = biological target: T2, human gc chain mutant, IHL replaced by Ala (Domain 1 Loop EF), myc-tagged, on COS-7 cells (human, UniProt P31785 23-369)
T2 construct: whole, on cells; not shown: 9 amino acid myc tag at the 5' end of the construct
T2 sequence (looked up): T1 sequence (looked up) with I100A, H101A, L102A, A143L, A144S, A145E

[3] = biological target: T3, human gc chain mutant, NLV replaced by Ala (interdomain residues), myc-tagged, on COS-7 cells (human, UniProt P31785 23-369)
T3 construct: whole, on cells; not shown: 9 amino acid myc tag at the 5' end of the construct
T3 sequence (looked up): T1 sequence (looked up) with N128A, L129A, V130A, A143L, A144S, A145E

[4] = biological target: T4, human gc chain mutant, FNV replaced by Ala (Domain 1 Loop AB), myc-tagged, on COS-7 cells (human, UniProt P31785 23-369)
T4 construct: whole, on cells; not shown: 9 amino acid myc tag at the 5' end of the construct
T4 sequence (looked up): T1 sequence (looked up) with F43A, N44A, V45A, A143L, A144S, A145E

- % binding to mutant gc chain/wildtype gc chain [1]: 90%
- % binding to mutant gc chain/wildtype gc chain [2]: 0%
- % binding to mutant gc chain/wildtype gc chain [3]: 0%
- % binding to mutant gc chain/wildtype gc chain [4]: 9%
B1: CP.B8 monoclonal antibody (murine anti-human gc chain, hybridoma ATCC HB-12107) (antibody, V domains shown)
VH: LQESGPGLVAPSQSLSITCTVSGFSLTSYGVHWVRQPPGKGLEWLGVIWAGGSTNYNSALMSRLNINRDNSKSQIFLKMNSLQTDDTAIYYCAREGSTVDSMDYWGQGTTVT
VL: DIVMTQSHKFMSTSVGDSITITCKASQDVTTAVAWYQQKPGQSPKLLIYWASTRHTGVPDRFTGSGSGTDYTLTISSVQAEDLALYYCQQHYITPWTFGGGTKLEI
notes: Used unconjugated and biotin-conjugated; also called CP.B8 mAb; mAb CP.B8
